{"source": "patent US11193155B2", "about": "“Designer α 6-fucosidase mutants enable direct core fucosylation of intact N-glycopeptides and N-glycoproteins” (UNIVERSITY OF MARYLAND, COLLEGE PARK, priority 2016, dated 2021)", "molecules": {"B1": {"name": "E274G: Lactobacillus casei α1,6-fucosidase (AlfC) mutant at general acid/base residue E274 (protein)", "chain": "MNDNVAWFKQAKYGMMIHWGLYSLLAGEYRGESSSAYAEWIQSKFQIPNAEYGNLATAFNPLYFDAKKIVALAKQCGMQYLVVTTKHHDGFAMYHSKVDAYNVYDATPFHRDIIGELAEACQKAGLKFGLYYSQDLDWHDPNGGGYKSNDVETAGTTWDNSWDFPDEDQKNFDLCFDNKILPQIKEIMSNYGDIATAWFDVPMTLSEAQSQTIYDTVRELQPNCLINSRLGNGKYDFVSLGDNEIPKNKEDMNKTDVDYNEITGFKPSPLGLYGTAGTINDSWGFSYHDQNWKTPRTLYRYKQHLNDFGINYLLNVGLDPLGRVPMMAEENLLAAKALEDEANRL"}, "B2": {"name": "E274S: Lactobacillus casei α1,6-fucosidase (AlfC) mutant at general acid/base residue E274 (protein)", "chain": "B1 chain with G274S"}, "B3": {"name": "wild type AlfC: α1,6-fucosidase from Lactobacillus casei (AlfC), wild type (protein, listed as Lactobacillus casei)", "chain": "B1 chain with G274E"}, "B4": {"name": "21: core-fucosylated RNase B glycoforms carrying core fucosylated high-mannose glycans (protein, UniProt P61823 27-150, looked up)", "Ribonuclease pancreatic": "KETAAAKFERQHMDSSTSAASSSNYCNQMMKSRNLTKDRCKPVNTFVHESLADVQAVCSQKNVACKNGQTNCYQSYSTMSITDCRETGSSKYPNCAYKTTQANKHIIVACEGNPYVPVHFDASV", "modifications": "core-fucosylated high-mannose glycans"}, "B5": {"name": "20: bovine ribonuclease B, natural glycoprotein with heterogeneous high-mannose type N-glycan (protein)", "chain": "B4 Ribonuclease pancreatic"}}, "key": {"[1]": {"target": "T1, Aleuria aurantia lectin (AAL) (Aleuria aurantia, UniProt P18891)", "T1 sequence (P18891 1-313)": "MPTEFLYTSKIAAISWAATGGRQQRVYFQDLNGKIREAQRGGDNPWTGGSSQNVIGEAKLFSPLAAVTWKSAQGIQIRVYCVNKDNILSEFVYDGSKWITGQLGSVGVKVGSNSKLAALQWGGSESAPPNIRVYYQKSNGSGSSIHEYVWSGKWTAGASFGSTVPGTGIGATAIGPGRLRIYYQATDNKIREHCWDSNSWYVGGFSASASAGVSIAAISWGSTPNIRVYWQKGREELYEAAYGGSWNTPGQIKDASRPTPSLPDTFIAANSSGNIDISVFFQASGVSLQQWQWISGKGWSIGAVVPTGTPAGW", "assay": "ELISA analysis of binding between lectin AAL and glycoproteins or released N-glycans", "settings": "for AAL binding: glycoprotein coated on plate; for EC50: glycoprotein coated on plate (10 μg/ml), AAL-biotin serial dilution", "excerpt": "FIG. 9 ELISA analysis of the binding between lectin AAL and glycoproteins or released N-glycans. The glycoproteins or released N-glycans (tagged with Fmoc) were immobilized on the plates and probed by serial dilutions of the lectin. A) AAL binding with RNase B (20) and fucosylated RNase B (21); B) AAL binding with non-fucosylated glycoform of rituximab (28) and fucosylated rituximab glycoform (30); C) AAL binding with the PNGase F released high-mannose N-glycans released from 20 and 21; D) ALL binding with the PNGase F released complex type N-glycans from 28 and 30.\nThe glycoprotein (20, 21, 28 or 30) (10 μg/ml) in a phosphate buffer (pH 7.5) was coated onto a 96-well plate (UltraCruz®) at 4° C. for overnight. After wash twice, 2% bovine serum albumin in PBS containing Tween® 20 (PBST buffer) was added to block the plate for 2 h. Subsequently, after washed twice again, a serial dilution of AAL-biotin ranging from 0.1 μM to 1000 μM in PBST buffer was added and the plate was incubated for 1 h. After washing, peroxidase streptavidin (2 μg/mL) (Jackson ImmunoResearch Inc.) was added and incubated for 1 h. Finally, 100 μL of substrate, 3, 3′, 5, 5′-tetramethylbenzidine was added for signal development. The reaction was stopped by the adding 100 μL of 20% sulfuric acid (v/v). The absorbance at 450 nm was measured using SpectraMax M5 microplate reader (Molecular Devices). For the binding of the N-glycans, the Fmoc-labeled N-glycans released from 20, 21, 28 and 30 (1 μg/ml) were coated on the plate and the ELISA analysis was performed in the same manner as that of the glycoproteins."}, "[2]": {"settings": "buffer; cited from earlier work"}, "physchem": {"assay": "physchem", "assay_type": "physicochemical", "settings": "buffer, pH 7.4", "excerpt": "Initially, the D200 mutants were examined as potential glycosynthases using two types of activated fucosyl donors with opposite anomeric configuration as substrates. For nucleophile mutant such as D200G, a fucosyl fluoride with reversed anomeric configuration, β-fucosyl fluoride or β-fucosyl azide, should be applied to mimic the enzyme-substrate intermediate^52,53,67. However, β-glycosyl fluorides are quite unstable and are subjected to spontaneous hydrolysis in aq. solutions^42. Indeed, most successful glycosynthases have been derived so far from retaining β-glycosidases that take the α-glycosyl fluoride as donor substrate. […] Thus, the potential glycosylation activity of the nucleophilic mutants, including D200G, D200S, D200A, and D200S, were tested using both the β-glycosyl azide (1) and the β-glycosyl fluoride (2) as the donor substrates and the Fmoc-Asn(GlcNAc)-OH (4)^69 as the acceptor substrate (FIG. 3). The reactions were run with different amounts of enzymes and were monitored by reverse-phase HPLC analysis."}, "[3]": {"assay": "Hydrolysis of α-fucosyl fluoride in the absence of the GlcNAc acceptor", "assay_type": "biochemical"}, "[4]": {"assay": "Transglycosylation kinetics of AlfC α-fucosidase mutants", "assay_type": "biochemical", "settings": "apparent; donor sugar 0.2 to 2.0 mM, acceptor 2.0 mM, sodium phosphate 0.1M pH 7.5, 42° C.", "procedure": "The kinetic studies on transglycosylation were carried out at 42° C. in sodium phosphate (0.1 M, pH 7.5). The transglycosylation product was detected and quantitated by HPLC analysis. The concentration of the donor substrates (1-3) was varied from 0.2 to 2.0 mM, while that of the acceptor (4) was fixed (2 mM). KM and kcat values (strictly, apparent KM and kcat, as they were determined at a fixed, nonsaturating, co-substrate concentration) were determined by fitting the initial velocity curves to the Michaelis-Menten equation by nonlinear regression in GraFit."}, "[5]": {"assay": "Glycoligase (transfucosylation) activity on acceptor 4, pH and temperature profiles", "assay_type": "biochemical", "settings": "donor 3, acceptor 4, pH 7.5, 42° C.", "procedure": "A) pH profile; B) temperature profile of its catalysis. […] The transglycosylation product was quantitated by HPLC analysis. To investigate temperature profile of AlfC α-fucosidase in transglycosylation reaction, a mixture of donor sugar 3 (20 mM), acceptor sugar (4) (10 mM) and enzyme AlfC E274G (0.2 mg/mL) was incubated in a PBS buffer (0.1 M, pH7.5) containing 5% DMSO. The reactions were carried out for 20 min at various temperatures, including 25° C., 30° C., 35° C., 40° C., 45° C., 50° C. and 55° C. The transglycosylation product was quantitated by HPLC analysis.\nNext, the potential glyco-ligase activity was tested of the general acid/base residue mutants using the α-fucosyl fluoride (3) as the donor substrate (FIG. 3)."}, "rituximab": {"system": "rituximab", "assay": "Defucosylation of rituximab by wild-type AlfC α-fucosidase", "assay_type": "biochemical", "excerpt": "The potent transfucosylation activity of AlfC α-fucoligase towards glycopeptides and glycoproteins prompted further exploring of its application for glycoengineering of therapeutic monoclonal antibodies. Core fucosylation of the Fc domain N-glycans plays a pivotal role in modulating the functions of antibodies and their therapeutic efficacy^8,74. It was previously developed by the current inventors a chemoenzymatic Fc glycan remodeling method that consists of deglycosylation and glycosynthase-catalyzed glycan transfer to produce homogeneous Fc glycoforms^65,66,75. If the fucoligase mutant could act on intact antibody, then it would further expand the repertoire of the toolbox for antibody Fc glycan engineering. To test this possibility, rituximab (26) was selected as a model system. First, rituximab was deglycosylated with Endo-S followed by defucosylation with the wild type AlfC α-fucosidase to give the GlcNAc-rituximab (27) (FIG. 7). […] The non-fucosylated complex type glycoform (28) of rituximab was synthesized by the EndoS-D233Q catalyzed glycosylation with glycan oxazoline (24) as the donor, following previously published procedure^75. These two glycoforms (27 and 28) were used as potential substrates for examining the AlfC fucoligase mutants. […] The product was readily isolated by protein A affinity chromatography. To confirm the identity of the Fucα1,6GlcNAc-rituximab (29), the product was treated with protease IdeS which specifically hydrolyzes IgG antibody to release the monomeric Fc domain, and the released Fc was analyzed by ESI-MS. […] As described previously, Fucα1,6GlcNAc-rituximab (29) was an excellent substrate for EndoS-D233Q^75. Indeed, incubation of 29 with EndoS-D233Q and glycan oxazoline (24) gave the expected core-fucosylated complex type glycoform of rituximab (30) in excellent yield, further confirming that the 29 was the expected Fucα1,6GlcNAc-rituximab.\nFinally, the direct fucosylation of the intact rituximab (28) was tested carrying the full size complex type Fc N-glycans. […]"}}, "note": "Substitutions are numbered along the chain they refer to. Names and notes keep the numbering of the source.", "data": [{"molecule": "28: non-fucosylated complex type glycoform of rituximab [compound 28]", "values": [{"measurement": "AAL binding", "setting": "[1]", "result": "did not show any detectable affinity"}]}, {"molecule": "C[C@@H]1O[C@H](F)[C@@H](O)[C@H](O)[C@@H]1O", "note": "[β-fucosyl fluoride]", "values": [{"measurement": "half-life (spontaneous hydrolysis)", "setting": "[2]", "result": "ca. 20 min"}]}, {"molecule": "30: core-fucosylated complex type glycoform of rituximab [compound 30]", "values": [{"measurement": "AAL binding", "setting": "[1]", "result": "specific recognition"}, {"measurement": "EC50", "setting": "[1]", "result": 15, "unit": "µM"}, {"measurement": "affinity for AAL relative to core-fucosylated RNase B (21)", "setting": "[1]; glycoproteins", "result": "about 17 fold"}]}, {"molecule": "C[C@@H]1O[C@H](F)[C@@H](F)[C@H](O)[C@@H]1O", "note": "[compound 2, 2-deoxy-2-fluoro-β-fucosyl fluoride]", "values": [{"measurement": "half-life", "setting": "physchem", "result": 360, "unit": "min"}]}, {"molecule": "B1", "values": [{"measurement": "hydrolysis of α-fucosyl fluoride", "setting": "[3]", "result": "only hydrolyzed α-fucosyl fluoride slowly"}, {"measurement": "Km", "setting": "[4]", "result": "250 ± 30", "unit": "µM"}, {"measurement": "kcat", "setting": "[4]", "result": "1.38 ± 0.15 × 10^2 min^−1"}, {"measurement": "catalytic activity to transfer fucose to GlcNAc of acceptor 4", "setting": "[5]", "result": "excellent catalysts for fucosylation"}]}, {"molecule": "B2", "values": [{"measurement": "hydrolysis of α-fucosyl fluoride", "setting": "[3]", "result": "only hydrolyzed α-fucosyl fluoride slowly"}, {"measurement": "Km", "setting": "[4]", "result": "260 ± 30", "unit": "µM"}, {"measurement": "kcat", "setting": "[4]", "result": "2.42 ± 0.14 × 10^2 min^−1"}, {"measurement": "catalytic activity to transfer fucose to GlcNAc of acceptor 4", "setting": "[5]", "result": "excellent catalysts for fucosylation"}]}, {"molecule": "B3", "values": [{"measurement": "hydrolysis of α-fucosyl fluoride", "setting": "[3]", "result": "could quickly hydrolyze the donor substrate"}, {"measurement": "hydrolytic (defucosylation) activity", "setting": "rituximab; intact rituximab, before Endo-S treatment, listed as wild type AlfC α-fucosidase", "result": "almost no activity"}, {"measurement": "hydrolytic (defucosylation) activity", "setting": "rituximab; intact rituximab, before Endo-S treatment, listed as wild-type AlfC α-fucosidase", "result": "unable to remove the fucose moiety"}, {"measurement": "hydrolytic (defucosylation) activity", "setting": "rituximab; rituximab after Endo-S deglycosylation", "result": "good hydrolytic activity"}]}, {"molecule": "B4", "values": [{"measurement": "AAL binding", "setting": "[1]", "result": "specific binding"}, {"measurement": "EC50", "setting": "[1]", "result": 275, "unit": "µM"}]}, {"molecule": "B5", "values": [{"measurement": "AAL binding", "setting": "[1]", "result": "didn't show any binding"}]}]}
